Data reported in patent US20250064958A1 (Eli Lilly, published 2025).

What was measured:
[1] = target: T1, Cynomolgous TfR ECD (Cynomolgus); assay: SPR, Biacore 8K, 37 C, TfR ECD immobilized on CM4 chip, TBP as analyte, 2-state binding model, n = 3
T1 chain: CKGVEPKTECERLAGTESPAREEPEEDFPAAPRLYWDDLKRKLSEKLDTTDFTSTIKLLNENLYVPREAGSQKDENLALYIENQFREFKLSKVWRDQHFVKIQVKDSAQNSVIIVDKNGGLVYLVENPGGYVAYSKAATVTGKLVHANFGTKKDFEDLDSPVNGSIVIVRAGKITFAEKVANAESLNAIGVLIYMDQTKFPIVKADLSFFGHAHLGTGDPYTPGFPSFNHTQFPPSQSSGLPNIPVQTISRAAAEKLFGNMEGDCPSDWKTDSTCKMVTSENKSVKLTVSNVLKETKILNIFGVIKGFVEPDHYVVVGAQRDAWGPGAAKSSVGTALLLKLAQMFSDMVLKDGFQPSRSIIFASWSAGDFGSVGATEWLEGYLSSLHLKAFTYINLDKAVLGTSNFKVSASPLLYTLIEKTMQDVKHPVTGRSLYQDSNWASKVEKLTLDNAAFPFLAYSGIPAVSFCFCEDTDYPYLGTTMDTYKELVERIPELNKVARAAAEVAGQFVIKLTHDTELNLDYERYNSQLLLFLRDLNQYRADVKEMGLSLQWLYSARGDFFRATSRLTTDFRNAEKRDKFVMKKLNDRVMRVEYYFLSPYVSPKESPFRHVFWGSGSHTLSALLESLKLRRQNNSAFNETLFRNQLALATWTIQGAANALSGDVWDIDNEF
Experimental: (§1) Target human and Cynomolgous TfR ECDs were immobilized on a CM4 chip (Cytiva P/N 29104989) using standard NHS-EDC amine coupling. The TfR binding proteins were prepared at a final concentration of 0.3, 0.1, 0.033, 0.01, 0.0033, 0.001, 0.00033, 0.0001 μM respectively by dilution of stock solution into running buffer.
(§2) Binding analysis was performed in a multi-cycle kinetics manner. Each analysis cycle consists of (1) injection of the lowest to highest concentration proteins over all Fc at 50 μL/min for 140 seconds followed by return to buffer flow for 400 seconds to monitor dissociation phase; (2) regeneration of chip surfaces with injection of 3M magnesium chloride, for 30 seconds at 100 μL/min over all cells; and (3) equilibration of chip surfaces with a 50 μL (30-sec) injection of HBS-EP+. Data were processed using standard double-referencing and fit to a 2-state binding model using Biacore 8K Evaluation software, to determine the association rate (kₒₙ, M⁻¹s⁻¹ units), dissociation rate (koff, s⁻¹ units), and Rₘₐₓ (RU units). The equilibrium dissociation constant (KD) is calculated from the relationship KD=koff/kₒₙ, and is in molar units.

[2] = target: T2, human TfR ECD (human, UniProt P02786 89-760); assay: as above
T2 construct: extracellular domain; also called human Transferrin Receptor 1 extracellular domain
Experimental: as §1, §2

B1: TBP4 (One Arm Heteromab 1, A378C) (antibody, human IgG4 S228P, kappa, F234A L235A)
heavy: EVQLVESGGGLVKPGGSLRLSCVASGFTFSSYSMNWVRQAPGKGLEWVSSISSSSSYIYYADSVKGRFTISRDNAKNSLYLQMNSLRAEDTAVYYCARRHGYSNSDAFDNWGQGTLVTVSSASTKGPSVFPLAPCSRSTSESTAALGCLVKDYFPEPVTVSWNSGALTSGVHTFPAVLQSSGLYSLSSVVTVPSSSLGTKTYTCNVDHKPSNTKVDKRVESKYGPPCPPCPAPEAAGGPSVFLFPPKPKDTLMISRTPEVTCVVVDVSQEDPEVQFNWYVDGVEVHNAKTKPREEQFNSTYRVVSVLTVLHQDWLNGKEYKCKVSNKGLPSSIEKTISKAKGQPREPQVSTLPPSQEEMTKNQVSLMCLVYGFYPSDICVEWESNGQPENNYKTTPPVLDSDGSFFLYSVLTVDKSRWQEGNVFSCSVMHEALHNHYTQKSLSLSLG
light: DIQMTQSPSAMSASVGDRVTITCRASQGISHYLVWFQQKPGKVPKRLIYAASSLQSGVPSRFSGSGSGTEFTLTISSLQPEDFATYYCLQHNSYPWTFGQGTKVEIKRTVAAPSVFIFPPSDEQLKSGTASVVCLLNNFYPREAKVQWKVDNALQSGNSQESVTEQDSKDSTYSLSSTLTLSKADYEKHKVYACEVTHQGLSSPVTKSFNRGEC
chain: ESKYGPPCPPCPAPEAAGGPSVFLFPPKPKDTLMISRTPEVTCVVVDVSQEDPEVQFNWYVDGVEVHNAKTKPREEQFNSTYRVVSVLTVLHQDWLNGKEYKCKVSNKGLPSSIEKTISKAKGQPREPQVYTLPPSQGDMTKNQVQLTCLVKGFYPSDICVEWESNGQPENNYKTTPPVLDSDGSFFLASRLTVDKSRWQEGNVFSCSVMHEALHNHYTQKSLSLSLG
notes: One-arm heteromab, IgG4 PAA, monovalent for human TfR; also called OAH1
[1]
  Kd: 0.3 µM
[2]
  Kd: 0.154 µM
